Changes are numbered by the printed parent chain.
T1: rat FcRn (rat, UniProt P13599)
T1 chain 1: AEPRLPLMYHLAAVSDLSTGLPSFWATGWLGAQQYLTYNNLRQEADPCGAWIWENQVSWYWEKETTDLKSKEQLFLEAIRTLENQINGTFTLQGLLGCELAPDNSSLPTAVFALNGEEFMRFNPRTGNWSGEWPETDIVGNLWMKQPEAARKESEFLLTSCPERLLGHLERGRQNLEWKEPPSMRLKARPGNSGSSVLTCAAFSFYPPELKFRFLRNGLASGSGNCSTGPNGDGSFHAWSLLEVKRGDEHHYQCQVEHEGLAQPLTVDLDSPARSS
T1 chain 2: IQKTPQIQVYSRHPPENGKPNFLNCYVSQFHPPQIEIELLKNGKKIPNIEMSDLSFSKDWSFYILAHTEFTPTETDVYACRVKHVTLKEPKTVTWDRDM

T2: mouse FcRn (mouse, UniProt Q61559)
T2 chain 1: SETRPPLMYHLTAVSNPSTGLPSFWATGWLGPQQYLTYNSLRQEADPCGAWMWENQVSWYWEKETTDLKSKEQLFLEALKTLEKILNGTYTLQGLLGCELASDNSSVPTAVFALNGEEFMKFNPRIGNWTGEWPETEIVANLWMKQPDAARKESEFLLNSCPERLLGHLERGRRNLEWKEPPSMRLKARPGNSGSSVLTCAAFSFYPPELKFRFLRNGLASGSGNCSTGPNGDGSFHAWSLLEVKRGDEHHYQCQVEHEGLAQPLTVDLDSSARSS
T2 chain 2: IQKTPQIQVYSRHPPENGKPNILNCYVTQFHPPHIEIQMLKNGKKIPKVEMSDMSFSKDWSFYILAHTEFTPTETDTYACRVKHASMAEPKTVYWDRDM

B1: HL161-11H (antibody)
chain 1: QMQLVESGGGLVQPGRSLRLSCAASGFTFSSYAMHWVRQAPGKGLEWVAVISYDGSNKYYADSVKGRFTISRDNSKNTLYLQMNSLRSEDTAVYYCSRGSGGRDAFDVWGQGTMITVSS
chain 2: DIQMTQSPSTLSASVGDRVTITCRASQSISSRLAWYQQKPGKAPKLLIYKASSLETGVPSRFSGSGSGTEFTLTISSLQPDDFATYYCQQTNSFPLTFGGGTKVEIK
B2: 11Hg (antibody)
chain 1: B1 chain 1 with M2V, L11V, S88A, S97A
chain 2: B1 chain 2
B3: HL161-10E (antibody)
chain 1: QVQLVESGGGLVQPGGSLRLSCAASGFRFSNFAMTWVRQAPGKGLEWVSTLSGSGGSIHHADSVKGRFTISRDNSKNTLYLQMNSLRAEDTAVYYCAKGPLRGQPAYLDPWGQGTLVTVSS
chain 2: SYELTQPLSVSMSPGQTARITCSGDALSKQYASWYQLKPGQAPVVVMYKDTERPSGIPDRFSGSSSGTTVTLTISGVQAEDEADYYCQSITDKSGTDVIFGGGTKLTVL
B4: HL161-6C (antibody)
chain 1: QVQLVESGAEVKKPGASVKVSCKASGYTFTSYYMHWVRQAPGQGLEWMGIINPSGGSTSYAQKFQGRVTMTRDTSTSTVYMELSSLRSEDTAVYYCARGGGAFDIWGQGTMVTVSS
chain 2: DIQMTQSPSSVSASVGDRVTITCRASQGISNWVAWYQQKPGKAPKLLIYAASSLQSGVPSRFSGSGSGTDFTLTISSLQPEDFAIYYCQQGHSFPYTFGQGTKVEIK
B5: A12-H04 (antibody)
chain 1: EVQLVESGGGLVQPGRSLRLSCAASGFTFDEYGMHWVRQAPGKGLEWVSGVSWNSGSIAYADSVRGRFTISRDNAKNSLYLQMNSLRAEDTALYYCAKGRLLDVWGQGTTVTVSS
chain 2: QSALTQPASVSGSPGQSITISCTGSSSDVGGYNYVSWYQQHPGKAPKLMIYDVTKRPSGVSNRFSGSKSGNTASLTISGLQAEDEADYYGAYSNTNFYVFGTGTKVTVL
B6: A12-C09 (antibody)
chain 1: B5 chain 1 with L101T, L102M
chain 2: B5 chain 2 with A91S, N94S, T95N, N96T
B7: 1Ag (antibody)
chain 1: B5 chain 1 with L101S, L102M
chain 2: QSALTQPASVSGSPGQSITISCTGSSSDVGGYNYVSWYQQHPGKAPKLMIYDVTKRPSGVSNRFSGSKSGNTASLTISGLQAEDEADYYCSSYSSSTFYVFGTGTKVTVL
B8: A11-G06 (antibody)
chain 1: B5 chain 1 with L102M
chain 2: B5 chain 2 with A91S, S93N, T95N, N96T
B9: A12-E01 (antibody)
chain 1: B5 chain 1 with G99S, L101S, L102M
chain 2: B5 chain 2 with A91S, T95N
B10: A11-C07 (antibody)
chain 1: B5 chain 1 with L101Y, L102S
chain 2: B5 chain 2 with G90A, A91S, N94S, T95N, N96T
B11: A12-E04 (antibody)
chain 1: B5 chain 1 with L102F
chain 2: B5 chain 2 with A91S, T95S
B12: HL161-1A (antibody)
chain 1: B5 chain 1 with E1Q, E6Q, T28S, D30G, A75S, L93V, K98R, L101S, L102M
chain 2: B7 chain 2 with Q1N, S2F, A3M, S17T, K47Q, M49I, T72S
B13: A12-F02 (antibody)
chain 1: B5 chain 1 with L101Y
chain 2: B5 chain 2 with A91S, S93D, N94S, T95N, N96T
B14: A12-E05 (antibody)
chain 1: B5 chain 1 with L101I
chain 2: B5 chain 2 with A91S, S93N, T95S, N96T
B15: HL161-11G (antibody)
chain 1: QMQLVESGGGVVQPGRSLRLSCVGSGFNFNSYGIHWVRQAPGKGLEWVGGIFYDGSQVKYADSVKGRVSISRDNSKNTAYLQMNSLRAEDTAVYYCARRNLLDYWGQGTVVTVSS
chain 2: B7 chain 2 with Q1N, S2F, A3M, K47Q, M49I, T72S

Key:
[1] = biological target: T3, shFcRn (human, UniProt P55899); experiment: SPR pH 7.4
[2] = biological target: T3, shFcRn; experiment: SPR pH 6.0
[3] = biological target: T1, rat FcRn; experiment: FACS pH 7.4
[4] = biological target: T2, mouse FcRn; experiment: FACS pH 6.0
[5] = biological target: T3, shFcRn; experiment: SPR pH 7.4; remark: listed apart in the source
[6] = biological target: T3, shFcRn; experiment: SPR pH 6.0; remark: listed apart in the source
[7] = biological target: T3, shFcRn; experiment: SPR pH 6.0; remark: listed apart in the source
[8] = biological target: T3, shFcRn; experiment: SPR pH 7.4; remark: listed apart in the source

T3 sequence (P55899 24-297, chain 1 of 2): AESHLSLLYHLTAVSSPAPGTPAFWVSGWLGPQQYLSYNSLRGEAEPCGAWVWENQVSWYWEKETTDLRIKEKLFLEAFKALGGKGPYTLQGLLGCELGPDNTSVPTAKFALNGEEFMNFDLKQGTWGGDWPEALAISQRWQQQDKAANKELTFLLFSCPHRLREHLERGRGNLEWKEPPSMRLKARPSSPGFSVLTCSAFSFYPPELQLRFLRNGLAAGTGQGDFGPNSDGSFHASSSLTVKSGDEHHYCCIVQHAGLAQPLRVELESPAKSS
T3 sequence (chain, as listed by the source, chain 2 of 2): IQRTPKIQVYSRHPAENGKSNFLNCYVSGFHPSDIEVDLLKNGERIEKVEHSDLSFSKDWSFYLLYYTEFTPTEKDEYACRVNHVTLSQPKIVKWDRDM

Binder | Kd [2] | koff [7] | koff [8] | also measured
B1 | 0.35 nM |  |  | Kd [1]: 0.9 nM; binding result [3]: no binding; binding result [4]: no binding
B2 |  |  |  | koff [5]: 0.000433 s⁻¹; koff [6]: 0.000434 s⁻¹
B3 | 3.8 nM |  |  | Kd [1]: 26 nM
B4 | 1.9 nM |  |  | Kd [1]: 6.6 nM
B5 |  | 0.00022 s⁻¹ | 0.00235 s⁻¹ | 
B6 |  | 0.000177 s⁻¹ | 0.000909 s⁻¹ | 
B7 |  | 0.000222 s⁻¹ | 0.000212 s⁻¹ | 
B8 |  | 0.000225 s⁻¹ | 0.000496 s⁻¹ | 
B9 |  | 5.99e-05 s⁻¹ | 0.00115 s⁻¹ | 
B10 |  | 0.000393 s⁻¹ | 0.00248 s⁻¹ | 
B11 |  | 0.000132 s⁻¹ | 0.00137 s⁻¹ | 
B12 | 0.8 nM |  |  | 
B13 |  | 0.000305 s⁻¹ | 0.000225 s⁻¹ | 
B14 |  | 0.000216 s⁻¹ | 0.00222 s⁻¹ | 
B15 | 0.16 nM |  |  | 

Reference: EP3010938
